Data taken from paper PMC10974264, “The Evolution and Application of a Novel DNA Aptamer Targeting Bone Morphogenetic Protein 2 for Bone Regeneration”.

Columns and labels:
[1] = molecular target: T1, rhBMP-2 (His-tagged, refolded, E. coli-expressed) (human, UniProt P12643 283-396); assay: ELONA; immobilized rhBMP-2, 100 ng/well; EMSA: 20 mM HEPES pH 7.4, 150 mM NaCl, 2 mM MgCl2, 2 mM CaCl2, 2 mM KCl, 37 C 1 h, 12% native PAGE at 4 C; ELONA: His-rhBMP-2 on HisSorb plate, biotinylated DNA 1 h at 37 C, PBST washes; details: protein: recombinant, tags: His tag (pET-15b NdeI/BamHI), chain copies: 2, label: biotin (ELONA), none in EMSA
T1 sequence: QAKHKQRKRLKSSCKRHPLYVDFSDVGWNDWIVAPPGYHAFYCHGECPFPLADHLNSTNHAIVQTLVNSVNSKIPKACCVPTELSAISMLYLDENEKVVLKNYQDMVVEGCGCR

[2] = molecular target: T1, rhBMP-2 (His-tagged, refolded, E. …); assay: ELISA-like; fiber of 500 nM BA1 and 10% type I collagen (0.3 mg/mL); EMSA: 20 mM HEPES pH 7.4, 150 mM NaCl, 2 mM MgCl2, 2 mM CaCl2, 2 mM KCl, 37 C 1 h, 12% native PAGE at 4 C; ELONA: His-rhBMP-2 on HisSorb plate, biotinylated DNA 1 h at 37 C, PBST washes; details: protein: recombinant; tags: His tag (pET-15b NdeI/BamHI); chain copies: 2; label: biotin

B1: BA1 (ssDNA)
DNA: CGTACGGTCGACGCTAGCAAAACAAAAAAAAATAAAAAAAAAAAGACTAAAGACACGTGGAGCTCGGATCC
Kd ([1]; single strand, predicted hairpin-like): 6.95 ± 0.53 nM

B2: BA1 in collagen fiber (ssDNA)
DNA: B1 DNA
Kd [2]: ~3.5 nM

B3: BNA2 (ssDNA)
DNA: CGTACGGTCGACGCTAGCATCAGCTCTCTGGGCTGAGTGGGTGGTGTGGCACGCACGTGGAGCTCGGATCC
Kd [1]: 22.3 ± 1.97 nM

B4: BA2 (ssDNA)
DNA: CGTACGGTCGACGCTAGCAAAAAAAAATCTAAAAACAAGAAAAGAAAAACAAACACGTGGAGCTCGGATCC
Kd [1]: 20.3 ± 4.73 nM
